The values that follow come from patent US20230151068A1.

B1: I05Y variant of SEQ ID NO: 1 (designed binder)
chain: GSPDEYYERAKECCKKGDIQCCLRYFEESGDPNVMLICLFCP
B2: D02P variant of SEQ ID NO: 1 (designed binder)
chain: GSPPEYIERAKECCKKGDIQCCLRYFEESGDPNVMLICLFCP
B3: K13R variant of SEQ ID NO: 1 (designed binder)
chain: GSPDEYIERAKECCRKGDIQCCLRYFEESGDPNVMLICLFCP
B4: E06P variant of SEQ ID NO: 1 (designed binder)
chain: GSPDEYIPRAKECCKKGDIQCCLRYFEESGDPNVMLICLFCP
B5: K09Y variant of SEQ ID NO: 1 (designed binder)
chain: GSPDEYIERAYECCKKGDIQCCLRYFEESGDPNVMLICLFCP
B6: E06Y variant of SEQ ID NO: 1 (designed binder)
chain: GSPDEYIYRAKECCKKGDIQCCLRYFEESGDPNVMLICLFCP
B7: G15H variant of SEQ ID NO: 1 (designed binder)
chain: GSPDEYIERAKECCKKHDIQCCLRYFEESGDPNVMLICLFCP
B8: K09P variant of SEQ ID NO: 1 (designed binder)
chain: GSPDEYIERAPECCKKGDIQCCLRYFEESGDPNVMLICLFCP
B9: K13M variant of SEQ ID NO: 1 (designed binder)
chain: GSPDEYIERAKECCMKGDIQCCLRYFEESGDPNVMLICLFCP
B10: I17G variant of SEQ ID NO: 1 (designed binder)
chain: GSPDEYIERAKECCKKGDGQCCLRYFEESGDPNVMLICLFCP
B11: Q18E variant of SEQ ID NO: 1 (designed binder)
chain: GSPDEYIERAKECCKKGDIECCLRYFEESGDPNVMLICLFCP
B12: K14G variant of SEQ ID NO: 1 (designed binder)
chain: GSPDEYIERAKECCKGGDIQCCLRYFEESGDPNVMLICLFCP
B13: I17H variant of SEQ ID NO: 1 (designed binder)
chain: GSPDEYIERAKECCKKGDHQCCLRYFEESGDPNVMLICLFCP
B14: K14E variant of SEQ ID NO: 1 (designed binder)
chain: GSPDEYIERAKECCKEGDIQCCLRYFEESGDPNVMLICLFCP
B15: E03P variant of SEQ ID NO: 1 (designed binder)
chain: GSPDPYIERAKECCKKGDIQCCLRYFEESGDPNVMLICLFCP
B16: D16R variant of SEQ ID NO: 1 (designed binder)
chain: GSPDEYIERAKECCKKGRIQCCLRYFEESGDPNVMLICLFCP
B17: G15E variant of SEQ ID NO: 1 (designed binder)
chain: GSPDEYIERAKECCKKEDIQCCLRYFEESGDPNVMLICLFCP
B18: G15D variant of SEQ ID NO: 1 (designed binder)
chain: GSPDEYIERAKECCKKDDIQCCLRYFEESGDPNVMLICLFCP
B19: K13D variant of SEQ ID NO: 1 (designed binder)
chain: GSPDEYIERAKECCDKGDIQCCLRYFEESGDPNVMLICLFCP
B20: E10Y variant of SEQ ID NO: 1 (designed binder)
chain: GSPDEYIERAKYCCKKGDIQCCLRYFEESGDPNVMLICLFCP
B21: I17R variant of SEQ ID NO: 1 (designed binder)
chain: GSPDEYIERAKECCKKGDRQCCLRYFEESGDPNVMLICLFCP
B22: I17E variant of SEQ ID NO: 1 (designed binder)
chain: GSPDEYIERAKECCKKGDEQCCLRYFEESGDPNVMLICLFCP
B23: K14D variant of SEQ ID NO: 1 (designed binder)
chain: GSPDEYIERAKECCKDGDIQCCLRYFEESGDPNVMLICLFCP
B24: Q18K variant of SEQ ID NO: 1 (designed binder)
chain: GSPDEYIERAKECCKKGDIKCCLRYFEESGDPNVMLICLFCP
B25: D16K variant of SEQ ID NO: 1 (designed binder)
chain: GSPDEYIERAKECCKKGKIQCCLRYFEESGDPNVMLICLFCP
B26: K13E variant of SEQ ID NO: 1 (designed binder)
chain: GSPDEYIERAKECCEKGDIQCCLRYFEESGDPNVMLICLFCP
B27: K14M variant of SEQ ID NO: 1 (designed binder)
chain: GSPDEYIERAKECCKMGDIQCCLRYFEESGDPNVMLICLFCP
B28: D16M variant of SEQ ID NO: 1 (designed binder)
chain: GSPDEYIERAKECCKKGMIQCCLRYFEESGDPNVMLICLFCP
B29: A08Y variant of SEQ ID NO: 1 (designed binder)
chain: GSPDEYIERYKECCKKGDIQCCLRYFEESGDPNVMLICLFCP
B30: R07P variant of SEQ ID NO: 1 (designed binder)
chain: GSPDEYIEPAKECCKKGDIQCCLRYFEESGDPNVMLICLFCP
B31: K13G variant of SEQ ID NO: 1 (designed binder)
chain: GSPDEYIERAKECCGKGDIQCCLRYFEESGDPNVMLICLFCP
B32: I17K variant of SEQ ID NO: 1 (designed binder)
chain: GSPDEYIERAKECCKKGDKQCCLRYFEESGDPNVMLICLFCP
B33: K13H variant of SEQ ID NO: 1 (designed binder)
chain: GSPDEYIERAKECCHKGDIQCCLRYFEESGDPNVMLICLFCP
B34: D16G variant of SEQ ID NO: 1 (designed binder)
chain: GSPDEYIERAKECCKKGGIQCCLRYFEESGDPNVMLICLFCP
B35: Q18G variant of SEQ ID NO: 1 (designed binder)
chain: GSPDEYIERAKECCKKGDIGCCLRYFEESGDPNVMLICLFCP
B36: G15K variant of SEQ ID NO: 1 (designed binder)
chain: GSPDEYIERAKECCKKKDIQCCLRYFEESGDPNVMLICLFCP
B37: G15M variant of SEQ ID NO: 1 (designed binder)
chain: GSPDEYIERAKECCKKMDIQCCLRYFEESGDPNVMLICLFCP
B38: I17M variant of SEQ ID NO: 1 (designed binder)
chain: GSPDEYIERAKECCKKGDMQCCLRYFEESGDPNVMLICLFCP
B39: G15R variant of SEQ ID NO: 1 (designed binder)
chain: GSPDEYIERAKECCKKRDIQCCLRYFEESGDPNVMLICLFCP
B40: D16H variant of SEQ ID NO: 1 (designed binder)
chain: GSPDEYIERAKECCKKGHIQCCLRYFEESGDPNVMLICLFCP
B41: K14R variant of SEQ ID NO: 1 (designed binder)
chain: GSPDEYIERAKECCKRGDIQCCLRYFEESGDPNVMLICLFCP
B42: R07Y variant of SEQ ID NO: 1 (designed binder)
chain: GSPDEYIEYAKECCKKGDIQCCLRYFEESGDPNVMLICLFCP
B43: Q18D variant of SEQ ID NO: 1 (designed binder)
chain: GSPDEYIERAKECCKKGDIDCCLRYFEESGDPNVMLICLFCP
B44: D16E variant of SEQ ID NO: 1 (designed binder)
chain: GSPDEYIERAKECCKKGEIQCCLRYFEESGDPNVMLICLFCP
B45: E10P variant of SEQ ID NO: 1 (designed binder)
chain: GSPDEYIERAKPCCKKGDIQCCLRYFEESGDPNVMLICLFCP
B46: K14H variant of SEQ ID NO: 1 (designed binder)
chain: GSPDEYIERAKECCKHGDIQCCLRYFEESGDPNVMLICLFCP
B47: Q18R variant of SEQ ID NO: 1 (designed binder)
chain: GSPDEYIERAKECCKKGDIRCCLRYFEESGDPNVMLICLFCP
B48: Q18H variant of SEQ ID NO: 1 (designed binder)
chain: GSPDEYIERAKECCKKGDIHCCLRYFEESGDPNVMLICLFCP
B49: I17D variant of SEQ ID NO: 1 (designed binder)
chain: GSPDEYIERAKECCKKGDDQCCLRYFEESGDPNVMLICLFCP
B50: I05P variant of SEQ ID NO: 1 (designed binder)
chain: GSPDEYPERAKECCKKGDIQCCLRYFEESGDPNVMLICLFCP
B51: A08P variant of SEQ ID NO: 1 (designed binder)
chain: GSPDEYIERPKECCKKGDIQCCLRYFEESGDPNVMLICLFCP
B52: Y04P variant of SEQ ID NO: 1 (designed binder)
chain: GSPDEPIERAKECCKKGDIQCCLRYFEESGDPNVMLICLFCP

The assay addresses biotinylated His-Avi-TEAD (194-411) (UniProt P28347). The assay is described as follows: SSM screen, enrichment after two rounds of sorting.
Turning to B1, the enrichment score is -10.9.
Molecule B2 had an enrichment score of -2.11.
B3 displayed an enrichment score of -0.81.
Under B4 stands -2.84; under B5, -4.96.
B6 displayed an enrichment score of -2.33.
Take B7: the enrichment score stood at 3.18.
Turning to B8, the enrichment score was -4.5.
B9 had an enrichment score of -0.4.
Take B10: the enrichment score is -5.4.
Molecule B11 had an enrichment score of -0.84.
Molecule B12 displayed an enrichment score of 1.11.
On to B13, for which the enrichment score was -3.33.
Regarding B14, the enrichment score was 1.
Under B15 stands -0.4.
In the case of B16, the enrichment score is -5.59.
For the molecule B17, the enrichment score stood at 1.99.
Molecule B18 came in with an enrichment score of -0.26.
For B19, the enrichment score was determined as 0.43.
B20 showed an enrichment score of -5.61.
The molecule B21 showed an enrichment score of 0.46.
Molecule B22 returned an enrichment score of -0.3.
For the molecule B23, the enrichment score is 1.27.
Molecule B24 returned an enrichment score of -1.54.
For the molecule B25, the enrichment score was -6.95.
In turn, B26 registered an enrichment score of -0.1.
Regarding B27, the enrichment score was -0.92.
Molecule B28 yielded an enrichment score of -4.12.
For B29, the enrichment score was -3.35.
For the molecule B30, the enrichment score was -2.49.
Regarding B31, the enrichment score is 0.7.
In turn, B32 came in with an enrichment score of -4.53.
In turn, B33 had an enrichment score of -0.44.
In turn, B34 came in with an enrichment score of -9.54.
B35 registered an enrichment score of -2.03.
For the molecule B36, the enrichment score stood at 4.43.
The molecule B37 showed an enrichment score of 1.64.
As for B38, the enrichment score was -2.95.
For B39, the enrichment score was determined as 0.91.
B40 yielded an enrichment score of -4.55.
As for B41, the enrichment score is -1.06.
Consider B42, for which the enrichment score was -1.01.
In turn, B43 showed an enrichment score of -0.19.
In the case of B44, the enrichment score is -3.6.
In the case of B45, the enrichment score was -3.72.
Take B46: the enrichment score was found to be 0.53.
Under B47 stands -3.67.
Molecule B48 yielded an enrichment score of -4.39.
The molecule B49 gave an enrichment score of -9.42.
Under B50 stands -0.43; under B51, -4.7.
As for B52, the enrichment score was found to be 1.02.
